Results on two variants are retold here after IntAct's records for PubMed 18805096.

B1: Cytoplasmic FMR1-interacting protein 1 (Homo sapiens), Q7L576 (parent)
chain: MAAQVTLEDALSNVDLLEELPLPDQQPCIEPPPSSLLYQPNFNTNFEDRNAFVTGIARYIEQATVHSSMNEMLEEGQEYAVMLYTWRSCSRAIPQVKCNEQPNRVEIYEKTVEVLEPEVTKLMNFMYFQRNAIERFCGEVRRLCHAERRKDFVSEAYLITLGKFINMFAVLDELKNMKCSVKNDHSAYKRAAQFLRKMADPQSIQESQNLSMFLANHNKITQSLQQQLEVISGYEELLADIVNLCVDYYENRMYLTPSEKHMLLKVMGFGLYLMDGSVSNIYKLDAKKRINLSKIDKYFKQLQVVPLFGDMQIELARYIKTSAHYEENKSRWTCTSSGSSPQYNICEQMIQIREDHMRFISELARYSNSEVVTGSGRQEAQKTDAEYRKLFDLALQGLQLLSQWSAHVMEVYSWKLVHPTDKYSNKDCPDSAEEYERATRYNYTSEEKFALVEVIAMIKGLQVLMGRMESVFNHAIRHTVYAALQDFSQVTLREPLRQAIKKKKNVIQSVLQAIRKTVCDWETGHEPFNDPALRGEKDPKSGFDIKVPRRAVGPSSTQLYMVRTMLESLIADKSGSKKTLRSSLEGPTILDIEKFHRESFFYTHLINFSETLQQCCDLSQLWFREFFLELTMGRRIQFPIEMSMPWILTDHILETKEASMMEYVLYSLDLYNDSAHYALTRFNKQFLYDEIEAEVNLCFDQFVYKLADQIFAYYKVMAGSLLLDKRLRSECKNQGATIHLPPSNRYETLLKQRHVQLLGRSIDLNRLITQRVSAAMYKSLELAIGRFESEDLTSIVELDGLLEINRMTHKLLSRYLTLDGFDAMFREANHNVSAPYGRITLHVFWELNYDFLPNYCYNGSTNRFVRTVLPFSQEFQRDKQPNAQPQYLHGSKALNLAYSSIYGSYRNFVGPPHFQVICRLLGYQGIAVVMEELLKVVKSLLQGTILQYVKTLMEVMPKICRLPRHEYGSPGILEFFHHQLKDIVEYAELKTVCFQNLREVGNAILFCLLIEQSLSLEEVCDLLHAAPFQNILPRVHVKEGERLDAKMKRLESKYAPLHLVPLIERLGTPQQIAIAREGDLLTKERLCCGLSMFEVILTRIRSFLDDPIWRGPLPSNGVMHVDECVEFHRLWSAMQFVYCIPVGTHEFTVEQCFGDGLHWAGCMIIVLLGQQRRFAVLDFCYHLLKVQKHDGKDEIIKNVPLKKMVERIRKFQILNDEIITILDKYLKSGDGEGTPVEHVRCFQPPIHQSLASS

In this assay the parent is B1. As to conditions: with if4e_human EIF4E.
Consider D724A;R726A, for which the “effect of a mutation on the interaction” value is recorded as “decreasing interaction”.
The entry for K725E is “decreasing interaction”.
